The results in this text go back to patent US20110217291A1.

The target of assay [1] is IgG of IgG Sepharose 6 Fast Flow resin (GE Healthcare). The experiment in a line: batch binding of 293F conditioned media to IgG Sepharose, Western blot quantitation, n=2.
Assay [2] has the same target. The experiment in a line: IgG-Sepharose column, 24 h CHO conditioned media, Western blot.

B1: FcγRIIA/RIA-CH6 (soluble hybrid receptor: first Ig domain of FcγRIIA followed by second and third Ig domains of FcγRIA, C-terminal six His tag) (receptor)
chain: AAPPKAVLKLEPPWINVLQEDSVTLTCQGARSPESDSIQWFHNGNLIPTHTQPSYRFKANNNDSGEYTCQTGQTSLSDPVHLTVLSEWLLLQVSSRVFTEGEPLALRCHAWKDKLVYNVLYYRNGKAFKFFHWNSNLTILKTNISHNGTYHCSGMGKHRYTSAGISVTVKELFPAPVLNASVTSPLLEGNLVTLSCETKLLLQRPGLQLYFSFYMGSKTLRGRNTSSEYQILTARREDSGLYWCEAATEDGNVLKRSPELELQVLGGSGGHHHHHH
Turning to B1, in assay [1], the percent of total expressed in IgG Sepharose flow-through (aggregate amount) amounted to 14.2% and the percent of total expressed recovered from IgG resin worked out at 40%.

B2: FcγRIIIA/RIA-CH6 (soluble hybrid receptor: first Ig domain of FcγRIIIA followed by second and third Ig domains of FcγRIA, C-terminal six His tag) (receptor)
chain: EDLPKAVVFLEPQWYRVLEKDSVTLKCQGAYSPEDNSTQWFHNESLISSQASSYFIDAATVDDSGEYRCQTNLSTLSDPVQLEVHIGWLLLQVSSRVFTEGEPLALRCHAWKDKLVYNVLYYRNGKAFKFFHWNSNLTILKTNISHNGTYHCSGMGKHRYTSAGISVTVKELFPAPVLNASVTSPLLEGNLVTLSCETKLLLQRPGLQLYFSFYMGSKTLRGRNTSSEYQILTARREDSGLYWCEAATEDGNVLKRSPELELQVLGGSGGHHHHHH
Take B2: in assay [2], the percent of total applied bound to IgG-Sepharose is 53% and the percent of total applied in the wash (unbound) came out at 47%. Further, in assay [1], the percent of total expressed in IgG Sepharose flow-through (aggregate amount) is 36% and the percent of total expressed recovered from IgG resin worked out at 82%.
